For experiment [1], the target named is murine GITR expressed on cells (mouse) (UniProt O35714). In words: flow cytometry after treatment of mice with mGITRL-FP IgG2a; competitor DTA-1 as stain. In general terms: A flow cytometer gives signals particle by particle.
The target is the same in experiment [2]. In words: cell-based or functional assay.

murine GITR expressed on cells (mouse), sequence (O35714 20-228): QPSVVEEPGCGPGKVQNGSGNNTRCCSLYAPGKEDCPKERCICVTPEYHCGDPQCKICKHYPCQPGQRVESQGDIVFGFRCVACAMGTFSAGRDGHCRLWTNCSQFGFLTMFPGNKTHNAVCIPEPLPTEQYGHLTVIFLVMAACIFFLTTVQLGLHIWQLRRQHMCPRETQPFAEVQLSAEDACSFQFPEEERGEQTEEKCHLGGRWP

Take mGITRL-FP mIgG2a (Fc fusion): in experiment [1], the reduction in GITR MFI (DTA-1 staining) on Tregs is greater than 75%. For the same substance, in experiment [2], the EC50, GITR-dependent NFκB reporter gene cell assay (Jurkat mGITR) amounted to 0.05 nM and the fold potency against DTA-1, GITR-dependent NFκB reporter gene cell assay worked out at 50 fold.
In experiment [2], DTA-1 anti-GITR antibody returned an EC50, GITR-dependent NFκB reporter gene cell assay (Jurkat mGITR) of 2.31 nM.
